By Kd is commonly meant the constant that tells how readily two partners part at equilibrium. Read a low Kd as tighter binding.

In series [1] the target is T1, CSTF2 (CstF-64) RRM wild type (Homo sapiens, UniProt P33240 1-107).
T1 sequence: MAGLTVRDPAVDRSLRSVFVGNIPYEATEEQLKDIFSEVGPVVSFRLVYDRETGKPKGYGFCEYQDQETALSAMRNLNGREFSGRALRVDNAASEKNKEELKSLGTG
Put plainly: fluorescence polarization.

Series [2] addresses T2, CSTF2 D50A RRM (Homo sapiens, UniProt P33240 1-107, D50A).
T2 sequence: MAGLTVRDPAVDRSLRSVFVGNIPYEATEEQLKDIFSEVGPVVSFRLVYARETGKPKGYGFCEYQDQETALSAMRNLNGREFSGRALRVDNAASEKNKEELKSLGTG
Put plainly: ITC. In general terms: In ITC the heat of successive injections is recorded.

The target in series [3] is T1, CSTF2 (CstF-64) RRM wild type. Put plainly: ITC.
For series [4], the target named is T2, CSTF2 D50A RRM. Put plainly: fluorescence polarization.

On to AUUUUAUGUUUCAGGU (ssRNA) [SVL RNA, 3'-fluorescein], for which, in series [1], the Kd turned out to be 1450 ± 70 nM.

With AUUUUAUGUUUCAGGU (ssRNA) [SVL RNA, unlabeled], the Kd in series [2] was found to be 698 ± 60 nM; in series [3], 1520 ± 170 nM.

Regarding GUGUGUGUGUGUGUGU (ssRNA) [(GU)8 RNA, 3'-fluorescein], the Kd in series [4] worked out at 170 ± 10 nM; in series [1], 260 ± 20 nM.

The values are drawn from paper PMC7515730.
